Results reported in patent US20240209409A1 (AJINOMOTO, published 2024).
Where no end group is shown, it is not given here. [ ]: non-standard residue; d: D form. Phe(4-N3) = [N-]=[N+]=Nc1ccc(C[C@H](N)C(=O)O)cc1

Assays:
EPOR = target: T1, EPOR (UniProt P19235 25-508, limits assumed); assay: cell-based or functional assay
T1 sequence (looked up): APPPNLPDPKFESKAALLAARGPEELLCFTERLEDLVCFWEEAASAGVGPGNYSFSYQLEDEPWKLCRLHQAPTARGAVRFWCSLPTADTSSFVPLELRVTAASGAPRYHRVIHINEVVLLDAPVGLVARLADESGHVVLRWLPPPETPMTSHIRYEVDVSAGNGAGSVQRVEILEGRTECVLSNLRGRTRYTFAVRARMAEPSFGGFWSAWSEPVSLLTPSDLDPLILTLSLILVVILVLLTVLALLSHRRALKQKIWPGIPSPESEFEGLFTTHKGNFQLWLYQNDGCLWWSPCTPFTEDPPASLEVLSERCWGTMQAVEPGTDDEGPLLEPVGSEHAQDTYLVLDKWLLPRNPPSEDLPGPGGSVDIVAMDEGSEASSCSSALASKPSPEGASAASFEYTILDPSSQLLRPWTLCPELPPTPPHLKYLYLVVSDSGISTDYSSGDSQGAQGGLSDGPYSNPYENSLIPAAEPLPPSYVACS

Met = Met (UniProt P08581 25-1390, limits assumed); assay: cell-based or functional assay
Chain of Met (P08581 25-1390 limits assumed): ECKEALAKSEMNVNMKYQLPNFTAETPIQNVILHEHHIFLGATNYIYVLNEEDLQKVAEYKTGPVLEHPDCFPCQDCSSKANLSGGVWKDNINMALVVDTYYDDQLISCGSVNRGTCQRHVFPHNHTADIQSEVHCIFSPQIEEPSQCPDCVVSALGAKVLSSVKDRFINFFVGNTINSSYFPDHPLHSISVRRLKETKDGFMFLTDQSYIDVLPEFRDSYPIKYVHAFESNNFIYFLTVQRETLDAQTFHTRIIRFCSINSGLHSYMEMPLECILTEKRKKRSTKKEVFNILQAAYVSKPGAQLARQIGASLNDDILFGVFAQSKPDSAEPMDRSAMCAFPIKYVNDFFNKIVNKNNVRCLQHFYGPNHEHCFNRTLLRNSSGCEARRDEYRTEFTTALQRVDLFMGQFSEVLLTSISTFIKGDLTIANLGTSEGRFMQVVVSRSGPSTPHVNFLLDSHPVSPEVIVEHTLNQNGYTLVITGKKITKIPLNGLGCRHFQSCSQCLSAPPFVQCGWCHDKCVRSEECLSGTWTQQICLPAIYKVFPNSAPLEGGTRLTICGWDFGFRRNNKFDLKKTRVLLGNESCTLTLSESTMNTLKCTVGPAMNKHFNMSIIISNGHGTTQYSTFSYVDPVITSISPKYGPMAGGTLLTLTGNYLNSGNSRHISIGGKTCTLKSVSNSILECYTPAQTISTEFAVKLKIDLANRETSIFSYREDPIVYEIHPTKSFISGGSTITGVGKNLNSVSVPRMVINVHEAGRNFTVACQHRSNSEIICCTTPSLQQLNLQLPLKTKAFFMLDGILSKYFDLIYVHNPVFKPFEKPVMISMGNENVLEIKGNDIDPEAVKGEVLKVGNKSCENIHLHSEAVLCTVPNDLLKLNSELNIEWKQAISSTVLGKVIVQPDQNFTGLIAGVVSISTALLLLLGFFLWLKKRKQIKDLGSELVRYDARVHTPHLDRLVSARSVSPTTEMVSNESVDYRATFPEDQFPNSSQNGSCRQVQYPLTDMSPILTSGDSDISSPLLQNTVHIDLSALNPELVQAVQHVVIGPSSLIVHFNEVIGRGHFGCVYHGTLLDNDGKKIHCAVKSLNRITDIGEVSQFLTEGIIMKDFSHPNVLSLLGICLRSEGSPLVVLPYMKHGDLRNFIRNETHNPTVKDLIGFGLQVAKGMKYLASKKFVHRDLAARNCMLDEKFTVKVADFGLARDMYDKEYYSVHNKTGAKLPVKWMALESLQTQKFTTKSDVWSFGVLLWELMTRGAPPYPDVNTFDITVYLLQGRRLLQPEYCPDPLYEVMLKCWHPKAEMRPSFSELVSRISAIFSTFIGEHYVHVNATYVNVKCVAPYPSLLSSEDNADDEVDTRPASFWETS

B1: L1-AzF-EPO-PA22 PEG-modified using m-dPEG24-DBCO (peptide)
chain: AETGGLYACHMGPMTWVCQPLRGAAPAAPAPAAPA[Phe(4-N3)](m‑dPEG24‑DBCO)APAPAAPAAPGGLYACHMGPMTWVCQPLRG
EPOR
  reporter activity (PathHunter eXpress EpoR-JAK2 Functional Assay, chemiluminescence relative to Mock); PEG+ sample, 1000-fold diluted: > 1.5 times that of Mock

B2: L1-AzF-aMD4dY-PA22 (peptide)
chain: AETCRQFNRRTHEVWNLDCGAAPAAPAPAAPA[Phe(4-N3)]APAPAAPAAPGCRQFNRRTHEVWNLDC
modifications: cysteine pairing not given here
Met
  reporter activity (SRE reporter, firefly/Renilla luciferase, HEK293 cells, relative to Mock); PEG- sample, 2500-fold diluted: > 10 times that of Mock

B3: L1-AzF-EPO-PA22 (peptide)
chain: AETGGLYACHMGPMTWVCQPLRGAAPAAPAPAAPA[Phe(4-N3)]APAPAAPAAPGGLYACHMGPMTWVCQPLRG
EPOR
  reporter activity (PathHunter eXpress EpoR-JAK2 Functional Assay, chemiluminescence relative to Mock); PEG- sample, 1000-fold diluted: > 1.5 times that of Mock

B4: L2-AzF-aMD4dY-PA22 (peptide)
chain: AETCRQFNRRTHEVWNLDCGAAPAAPAPAA[Phe(4-N3)]AAPAPAAPAAPGCRQFNRRTHEVWNLDC
modifications: cysteine pairing not given here
Met
  reporter activity (SRE reporter, firefly/Renilla luciferase, HEK293 cells, relative to Mock); PEG- sample, 2500-fold diluted: > 10 times that of Mock

B5: N-AzF-aMD4dY-PA22 (peptide)
chain: AET[Phe(4-N3)]CRQFNRRTHEVWNLDCGAAPAAPAPAAPAAPAPAAPAAPGCRQFNRRTHEVWNLDC
modifications: cysteine pairing not given here
Met
  reporter activity (SRE reporter, firefly/Renilla luciferase, HEK293 cells, relative to Mock); PEG- sample, 2500-fold diluted: > 10 times that of Mock

B6: N-AzF-aMD4dY-PA22 PEG-modified using m-dPEG24-DBCO (peptide)
chain: AET[Phe(4-N3)](m‑dPEG24‑DBCO)CRQFNRRTHEVWNLDCGAAPAAPAPAAPAAPAPAAPAAPGCRQFNRRTHEVWNLDC
modifications: cysteine pairing not given here
Met
  reporter activity (SRE reporter, firefly/Renilla luciferase, HEK293 cells, relative to Mock); PEG+ sample, 2500-fold diluted: > 10 times that of Mock

B7: WT-aMD4dY-PA22 (peptide)
chain: AETCRQFNRRTHEVWNLDCGAAPAAPAPAAPAAPAPAAPAAPGCRQFNRRTHEVWNLDC
Met
  reporter activity (SRE reporter, firefly/Renilla luciferase, HEK293 cells, relative to Mock); PEG+ sample (WT treated with m-dPEG24-DBCO, not modified), 2500-fold diluted: > 10 times that of Mock
  reporter activity (SRE reporter, firefly/Renilla luciferase, HEK293 cells, relative to Mock); PEG- sample, 2500-fold diluted: > 10 times that of Mock

B8: L2-AzF-EPO-PA22 PEG-modified using m-dPEG24-DBCO (peptide)
chain: AETGGLYACHMGPMTWVCQPLRGAAPAAPAPAA[Phe(4-N3)](m‑dPEG24‑DBCO)AAPAPAAPAAPGGLYACHMGPMTWVCQPLRG
EPOR
  reporter activity (PathHunter eXpress EpoR-JAK2 Functional Assay, chemiluminescence relative to Mock); PEG+ sample, 1000-fold diluted: > 1.5 times that of Mock

B9: L2-AzF-EPO-PA22 (peptide)
chain: AETGGLYACHMGPMTWVCQPLRGAAPAAPAPAA[Phe(4-N3)]AAPAPAAPAAPGGLYACHMGPMTWVCQPLRG
EPOR
  reporter activity (PathHunter eXpress EpoR-JAK2 Functional Assay, chemiluminescence relative to Mock); PEG- sample, 1000-fold diluted: > 1.5 times that of Mock

B10: N-AzF-EPO-PA22 PEG-modified using m-dPEG24-DBCO (peptide)
chain: AET[Phe(4-N3)](m‑dPEG24‑DBCO)GGLYACHMGPMTWVCQPLRGAAPAAPAPAAPAAPAPAAPAAPGGLYACHMGPMTWVCQPLRG
EPOR
  reporter activity (PathHunter eXpress EpoR-JAK2 Functional Assay, chemiluminescence relative to Mock); PEG+ sample, 1000-fold diluted: > 1.5 times that of Mock

B11: L1-AzF-aMD4dY-PA22 PEG-modified using m-dPEG24-DBCO (peptide)
chain: AETCRQFNRRTHEVWNLDCGAAPAAPAPAAPA[Phe(4-N3)](m‑dPEG24‑DBCO)APAPAAPAAPGCRQFNRRTHEVWNLDC
modifications: cysteine pairing not given here
Met
  reporter activity (SRE reporter, firefly/Renilla luciferase, HEK293 cells, relative to Mock); PEG+ sample, 2500-fold diluted: > 10 times that of Mock

B12: WT-EPO-PA22 (peptide)
chain: AETGGLYACHMGPMTWVCQPLRGAAPAAPAPAAPAAPAPAAPAAPGGLYACHMGPMTWVCQPLRG
EPOR
  reporter activity (PathHunter eXpress EpoR-JAK2 Functional Assay, chemiluminescence relative to Mock); PEG+ sample (WT treated with m-dPEG24-DBCO, not modified), 1000-fold diluted: > 1.5 times that of Mock
  reporter activity (PathHunter eXpress EpoR-JAK2 Functional Assay, chemiluminescence relative to Mock); PEG- sample, 1000-fold diluted: > 1.5 times that of Mock

B13: N-AzF-EPO-PA22 (peptide)
chain: AET[Phe(4-N3)]GGLYACHMGPMTWVCQPLRGAAPAAPAPAAPAAPAPAAPAAPGGLYACHMGPMTWVCQPLRG
EPOR
  reporter activity (PathHunter eXpress EpoR-JAK2 Functional Assay, chemiluminescence relative to Mock); PEG- sample, 1000-fold diluted: > 1.5 times that of Mock

B14: L2-AzF-aMD4dY-PA22 PEG-modified using m-dPEG24-DBCO (peptide)
chain: AETCRQFNRRTHEVWNLDCGAAPAAPAPAA[Phe(4-N3)](m‑dPEG24‑DBCO)AAPAPAAPAAPGCRQFNRRTHEVWNLDC
modifications: cysteine pairing not given here
Met
  reporter activity (SRE reporter, firefly/Renilla luciferase, HEK293 cells, relative to Mock); PEG+ sample, 2500-fold diluted: > 10 times that of Mock
